One protein from FireProtDB (doi:10.1021/bi00485a005) can be followed below.

The conditions of the data set: Aspergillus oryzae (strain ATCC 42149 / RIB 40), 25 °C, Urea, Fluorescence, NaCl 0.2 M, whole UniProt chain shown.

B1: Guanyl-specific ribonuclease T1 wild type, P00651 (protein)
chain: MMYSKLLTLTTLLLPTALALPSLVERACDYTCGSNCYSSSDVSTAQAAGYQLHEDGETVGSNSYPHKYNNYEGFDFSVSSPYYEWPILSSGDVYSGGSPGADRVVFNENNQLAGVITHTGASGNNFVECT
Consider B1, for which, where the note is “pH 6.02, MES 30 mM”, the denaturant m value is 1.25 kcal/mol/M, the “denaturant midpoint (higher = more stable)” value was determined as 6.58 M and the unfolding free energy worked out at 8.24 kcal/mol. For the same protein, for the setting “pH 8.02, HEPPSO 30 mM”, the denaturant m value was determined as 1.35 kcal/mol/M, the “denaturant midpoint (higher = more stable)” value was 4.38 M and the unfolding free energy is 5.92 kcal/mol.
